Values quoted from earlier work, collected in article PMC12152952.

Molecular target: EphA2 (ephrin type-A receptor 2) (UniProt P29317)
Details: 2'-fluoro on lowercase residues (all C and U; 2'-F pyrimidines), A and G are ribo

EphA2 (ephrin type-A receptor 2), sequence (P29317 24-537): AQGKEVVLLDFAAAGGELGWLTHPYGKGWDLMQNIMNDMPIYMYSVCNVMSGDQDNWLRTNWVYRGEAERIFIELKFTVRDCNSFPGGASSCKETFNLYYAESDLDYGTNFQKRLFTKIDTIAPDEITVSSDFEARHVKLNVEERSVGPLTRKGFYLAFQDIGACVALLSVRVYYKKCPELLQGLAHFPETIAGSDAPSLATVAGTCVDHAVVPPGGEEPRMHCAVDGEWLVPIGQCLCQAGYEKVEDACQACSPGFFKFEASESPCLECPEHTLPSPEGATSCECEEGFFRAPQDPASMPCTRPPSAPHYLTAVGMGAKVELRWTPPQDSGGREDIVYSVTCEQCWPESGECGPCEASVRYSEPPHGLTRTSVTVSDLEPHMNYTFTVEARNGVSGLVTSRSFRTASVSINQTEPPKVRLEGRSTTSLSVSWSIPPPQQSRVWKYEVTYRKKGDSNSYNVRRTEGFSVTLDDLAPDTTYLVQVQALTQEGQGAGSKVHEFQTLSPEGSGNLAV

CCUGUUGUUCGACAGGAGGCUCACAACAGG [A40s]
Kd: 0.76 nM
